In FireProtDB (doi:10.1007/s10930-006-9055-y):

Conditions: Weissella confusa, Thermal, reversible: No, whole UniProt chain shown
[1] = pH 6, DSC, Natrium phosphate Imidazol 50 mM 250 mM, NaCl 300 mM
[2] = pH 7, DSC, Natrium phosphate Imidazol 50 mM 250 mM, NaCl 300 mM
[3] = pH 8, DSC, Natrium phosphate Imidazol 50 mM 250 mM, NaCl 300 mM

B1: L-2-hydroxyisocaproate dehydrogenase wild type, P14295 (protein)
chain: MARKIGIIGLGNVGAAVAHGLIAQGVADDYVFIDANEAKVKADQIDFQDAMANLEAHGNIVINDWAALADADVVISTLGNIKLQQDNPTGDRFAELKFTSSMVQSVGTNLKESGFHGVLVVISNPVDVITALFQHVTGFPAHKVIGTGTLLDTARMQRAVGEAFDLDPRSVSGYNLGEHGNSQFVAWSTVRVMGQPIVTLADAGDIDLAAIEEEARKGGFTVLNGKGYTSYGVATSAIRIAKAVMADAHAELVVSNRRDDMGMYLSYPAIIGRDGVLAETTLDLTTDEQEKLLQSRDYIQQRFDEIVDTL
For B1, the Tm (pH 6, CD, Potassium phosphate 5 mM) was 56.8 °C, the Tm [1] was 62.5 °C and the “unfolding enthalpy (calorimetric)” value [1] was 222 kcal/mol. For the same protein, the “unfolding enthalpy (van 't Hoff)” value [1] was 227 kcal/mol, the Tm (pH 6, DSC, Potassium phosphate 5 mM) was 57.2 °C and the Tm (pH 7, CD, Potassium phosphate 5 mM) was 60.2 °C. The Tm [2] was 55.1 °C, the “unfolding enthalpy (calorimetric)” value [2] was 203 kcal/mol and the “unfolding enthalpy (van 't Hoff)” value [2] was 202 kcal/mol. It also gave a Tm (pH 7, DSC, Potassium phosphate 5 mM) of 59.6 °C, a Tm (pH 8, CD, Potassium phosphate 5 mM) of 56.2 °C and a Tm [3] of 44.1 °C. The “unfolding enthalpy (calorimetric)” value [3] was 221 kcal/mol and the “unfolding enthalpy (van 't Hoff)” value [3] was 225 kcal/mol.
